The supplement of paper PMC5998384

Assays:
HeLa Kyoto [1] = experiment: thermal stability score vs G1/S (z-score of summed log2 fold changes over temperatures); higher = more thermally stable than in G1/S
HeLa Kyoto [2] = experiment: solubility change mitosis vs G1/S (difference of NP-40 vs SDS log2 ratios) (log2 ratio difference); higher = more soluble in mitosis
HeLa Kyoto [3] = experiment: melting temperature (median over replicates), in situ; higher = more thermally stable
HeLa Kyoto [4] = experiment: solubility in G1/S (NP-40 vs SDS abundance) (log2 ratio); higher = more soluble; conditions: cell cycle stage: G1/S
[5] = cell cycle stage: early G1 (4.5 h after nocodazole release)
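Wherever melting temperature (median over replicates), in situ is given: HeLa Kyoto cells synchronized by double thymidine or nocodazole block, proteins quantified by TMT10plex mass spectrometry, three independent biological replicates.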
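Wherever solubility change mitosis vs G1/S (difference of NP-40 vs SDS log2 ratios) is given: synchronized HeLa Kyoto cells (double thymidine block for G1/S, nocodazole release for mitosis), protein amounts in NP-40 versus SDS lysates quantified by mass spectrometry, three biological replicates.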
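Wherever solubility in G1/S (NP-40 vs SDS abundance) is given: HeLa Kyoto cells arrested at G1/S by double thymidine block, proteins quantified by TMT10plex mass spectrometry in mild NP-40 versus SDS extracts, three biological replicates.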
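Wherever thermal stability score vs G1/S (z-score of summed log2 fold changes over temperatures) is given: synchronized HeLa Kyoto cells, proteins quantified by TMT10plex mass spectrometry, three biological replicates, mitosis taken 0.5 h after nocodazole release, G1/S directly after double thymidine block.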

Sequence	thermal stability score (HeLa Kyoto [1]; [5])	thermal stability score (HeLa Kyoto [1]; cell cycle stage: mitosis)	solubility change mitosis (log2) (HeLa Kyoto [2])	melting temperature (HeLa Kyoto [3]; cell cycle stage: G1/S) [°C]	melting temperature (HeLa Kyoto [3]; cell cycle stage: mitosis) [°C]	solubility in G1/S (log2) (HeLa Kyoto [4])
MALGLKCFRMVHPTFRNYLAASIRPVSEVTLKTVHERQHGHRQYMAYSAVPVRHFATKKAKAKGKGQSQTRVNINAALVEDIINLEEVNEEMKSVIEALKDNFNKTLNIRTSPGSLDKIAVVTADGKLALNQISQISMKSPQLILVNMASFPECTAAAIKAIRESGMNLNPEVEGTLIRVPIPQVTREHREMLVKLAKQNTNKAKDSLRKVRTNSMNKLKKSKDTVSEDTIRLIEKQISQMADDTVAELDRHLAVKTKELLG [MRRF]	-2.43	-2.36	0.328	50.1	51.3	0.605
MALKQISSNKCFGGLQKVFEHDSVELNCKMKFAVYLPPKAETGKCPALYWLSGLTCTEQNFISKSGYHQSASEHGLVVIAPDTSPRGCNIKGEDESWDFGTGAGFYVDATEDPWKTNYRMYSYVTEELPQLINANFPVDPQRMSIFGHSMGGHGALICALKNPGKYKSVSAFAPICNPVLCPWGKKAFSGYLGTDQSKWKAYDATHLVKSYPGSQLDILIDQGKDDQFLLDGQLLPDNFIAACTEKKIPVVFRLQEGYDHSYYFIATFITDHIRHHAKYLNA [ESD]	-1.51	-2.28	-0.0867	55.8	56.4	-0.0889
MALLALLLVVALPRVWTDANLTARQRDPEDSQRTDEGDNRVWCHVCERENTFECQNPRRCKWTEPYCVIAAVKIFPRFFMVAKQCSAGCAAMERPKPEEKRFLLEEPMPFFYLKCCKIRYCNLEGPPINSSVFKEYAGSMGESCGGLWLAILLLLASIAAGLSLS [LY6K]	2.6	2.04	-0.107	52.6	52.9	0.0392
MALLAMHSWRWAAAAAAFEKRRHSAILIRPLVSVSGSGPQWRPHQLGALGTARAYQIPESLKSITWQRLGKGNSGQFLDAAKALQVWPLIEKRTCWHGHAGGGLHTDPKEGLKDVDTRKIIKAMLSYVWPKDRPDLRARVAISLGFLGGAKAMNIVVPFMFKYAVDSLNQMSGNMLNLSDAPNTVATMATAVLIGYGVSRAGAAFFNEVRNAVFGKVAQNSIRRIAKNVFLHLHNLDLGFHLSRQTGALSKAIDRGTRGISFVLSALVFNLLPIMFEVMLVSGVLYYKCGAQFALVTLGTLGTYTAFTVAVTRWRTRFRIEMNKADNDAGNAAIDSLLNYETVKYFNNERYEAQRYDGFLKTYETASLKSTSTLAMLNFGQSAIFSVGLTAIMVLASQGIVAGTLTVGDLVMVNGLLFQLSLPLNFLGTVYRETRQALIDMNTLFTLLKVDTQIKDKVMASPLQITPQTATVAFDNVHFEYIEGQKVLSGISFEVPAGKKVAIVGGSGSGKSTIVRLLFRFYEPQKGSIYLAGQNIQDVSLESLRRAVGVVPQDAVLFHNTIYYNLLYGNISASPEEVYAVAKLAGLHDAILRMPHGYDTQVGERGLKLSGGEKQRVAIARAILKDPPVILYDEATSSLDSITEETILGAMKDVVKHRTSIFIAHRLSTVVDADEIIVLDQGKVAERGTHHGLLANPHSIYSEMWHTQSSRVQNHDNPKWEAKKENISKEEERKKLQEEIVNSVKGCGNCSC [ABCB7]	-0.909	-1.83	-0.12	52.5	51.6	-0.121
MALLLCFVLLCGVVDFARSLSITTPEEMIEKAKGETAYLPCKFTLSPEDQGPLDIEWLISPADNQKVDQVIILYSGDKIYDDYYPDLKGRVHFTSNDLKSGDASINVTNLQLSDIGTYQCKVKKAPGVANKKIHLVVLVKPSGARCYVDGSEEIGSDFKIKCEPKEGSLPLQYEWQKLSDSQKMPTSWLAEMTSSVISVKNASSEYSGTYSCTVRNRVGSDQCLLRLNVVPPSNKAGLIAGAIIGTLLALALIGLIIFCCRKKRREEKYEKEVHHDIREDVPPPKSRTSTARSYIGSNHSSLGSMSPSNMEGYSKTQYNQVPSEDFERTPQSPTLPPAKVAAPNLSRMGAIPVMIPAQSKDGSIV [CXADR]	-1.74	-2.2	-0.112	59.4	57.6	0.245
MALLRGVFVVAAKRTPFGAYGGLLKDFTATDLSEFAAKAALSAGKVSPETVDSVIMGNVLQSSSDAIYLARHVGLRVGIPKETPALTINRLCGSGFQSIVNGCQEICVKEAEVVLCGGTESMSQAPYCVRNVRFGTKLGSDIKLEDSLWVSLTDQHVQLPMAMTAENLAVKHKISREECDKYALQSQQRWKAANDAGYFNDEMAPIEVKTKKGKQTMQVDEHARPQTTLEQLQKLPPVFKKDGTVTAGNASGVADGAGAVIIASEDAVKKHNFTPLARIVGYFVSGCDPSIMGIGPVPAISGALKKAGLSLKDMDLVEVNEAFAPQYLAVERSLDLDISKTNVNGGAIALGHPLGGSGSRITAHLVHELRRRGGKYAVGSACIGGGQGIAVIIQSTA [ACAA2]	-3.39	-4.11	-0.0842	59.3	59.2	0.213
